From the supplement of paper PMC9732359
± gives the uncertainty stated by the source.

Assay: protein stability index of a GFP-peptide fusion (yeast GPS) (PSI 1-4); higher = more stable; sorted into four equal gates, so the index is relative within each strain
How it was run: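 Tiled 17-residue peptides from yeast proteins were fused downstream of GFP on a plasmid that also expresses Cherry, and the pooled library was carried in yeast. Mid-log cultures grown in leucine-free medium were sorted into four equal gates by GFP/Cherry fluorescence ratio. Plasmids from each gate were PCR-amplified and Illumina-sequenced, and reads were assigned to strains by barcodes. Each peptide's protein stability index is the sum, over gates, of the gate's read frequency multiplied by its gate number.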

Row | Sequence | protein stability index (doa10∆) | protein stability index (pdr5∆) | protein stability index (san1∆) | protein stability index (ubr1∆)
1 | DGLIAPGVRVSGEDVII [RPB2] | 3.05 ± 0.12 | 2.69 ± 0.085 | 3.29 ± 0.16 | 2.67 ± 0.095
2 | DSGIGSNGSGIVAAGGG [CSL4] | 3.45 ± 0.066 | 3.34 ± 0.07 | 3.35 ± 0.052 | 3.42 ± 0.058
3 | IRNINVQDALLTNQLYK [SNF2] | 2.84 ± 0.07 | 2.67 ± 0.064 | 3.12 ± 0.05 | 3.24 ± 0.075
4 | GNSFNKSSNDTIEHAAD [YCG1] | 2.14 ± 0.058 | 2.67 ± 0.048 | 2.37 ± 0.047 | 2.64 ± 0.057
5 | KGNVGFVFTNEPLTEIK [RPP0] | 3.56 ± 0.18 | 3.06 ± 0.1 | 2.06 ± 0.21 | 3.58 ± 0.2
6 | LDLAGPLLAQLFKTLFK [RPB2] | 2.63 ± 0.038 | 1.25 ± 0.037 | 1.25 ± 0.078 | 1.18 ± 0.031
7 | WTSTQRHHWQYTKASLA [SSN8] | 1.26 ± 0.093 | 1.38 ± 0.095 | 1.42 ± 0.16 | 1.46 ± 0.073
8 | KLDIISDPESERPAIEF [RPN14] | 2.94 ± 0.045 | 3.05 ± 0.05 | 3.03 ± 0.04 | 3.18 ± 0.039
9 | NFRILKSFTNDKIPLNY [SRB5] | 2.94 ± 0.054 | 2.77 ± 0.057 | 2.84 ± 0.04 | 2.91 ± 0.036
10 | KIRPWRTFRLNECVCTP [RPO31] | 1.31 ± 0.065 | 1.99 ± 0.064 | 1.73 ± 0.18 | 1.24 ± 0.092
11 | TGQNFLTSNISSLVRSC [REC8] | 3.21 ± 0.12 | 2.78 ± 0.08 | 2.54 ± 0.099 | 2.96 ± 0.091
12 | GSVSEETELFEPGVLNT [ECM29] | 3.28 ± 0.16 | 3 ± 0.087 | 3.07 ± 0.096 | 2.67 ± 0.083
13 | KEAALKTMIKTIEKDKM [SMC2] | 2.8 ± 0.17 | 1.83 ± 0.14 | 1.57 ± 0.13 | 2.03 ± 0.061
14 | LNDRQEEISRLQRDLIQ [YIL149C/MLP2] | 2.72 ± 0.11 | 3.25 ± 0.25 | 3.07 ± 0.26 | 3.05 ± 0.12
15 | SPLQKEEALNFDISMAD [SSN2] | 3.23 ± 0.058 | 3.07 ± 0.057 | 3.18 ± 0.07 | 3.25 ± 0.058
16 | IDHSDESNRQSVIVDSK [ESC2] | 3.18 ± 0.13 | 3.27 ± 0.077 | 3.08 ± 0.093 | 3.51 ± 0.15
17 | SKKTGQFNAQGVRDINC [POP1] | – | – | 3.16 ± 0.12 | –
18 | PCLRKYEEFRDVAIENN [RRP43] | 2.73 ± 0.064 | 2.82 ± 0.065 | 2.9 ± 0.041 | 2.94 ± 0.047
19 | IGGRRFSEGTSADREIQ [RPT4] | 2.51 ± 0.085 | 2.59 ± 0.088 | 1.98 ± 0.12 | 2.77 ± 0.19
20 | SVISGNLSLYEATAASH [CSN12] | 2.28 ± 0.063 | 2.87 ± 0.068 | 2.8 ± 0.069 | 2.7 ± 0.057
21 | NSSKPAFSFGAKSNEDK [YJL041W/NSP1] | 3.19 ± 0.1 | 3.13 ± 0.056 | 3.32 ± 0.077 | 3.33 ± 0.068
22 | LFSEKTIRYLMQKQHEM [SNF6] | 2.63 ± 0.044 | 2.55 ± 0.045 | 2.44 ± 0.069 | 2.66 ± 0.034
23 | NKLTILGRDYPIEVDEE [IRR1] | 2.28 ± 0.1 | 2.56 ± 0.12 | 2.38 ± 0.11 | 2.64 ± 0.066
24 | LWLKKVMEEEEQDCKCI [POP8] | 2.63 ± 0.077 | 2.7 ± 0.068 | 3.05 ± 0.078 | 2.99 ± 0.051
25 | LFQELSKVVDDMPSLRL [GRR1] | 3.2 ± 0.18 | 1.61 ± 0.11 | 2.22 ± 0.12 | 2.31 ± 0.085
26 | FMHDPSVFYNIANMVLP [SIR2] | 2 ± 0.05 | 2.03 ± 0.04 | 1.85 ± 0.054 | 1.7 ± 0.036
27 | SFLFDVLKTLEYKLATY [NUT1] | 2.33 ± 0.062 | 2.18 ± 0.07 | 3 ± 0.097 | 2.03 ± 0.074

Row | Sequence | protein stability index (doa10∆) | protein stability index (pdr5∆) | protein stability index (san1∆) | protein stability index (ubr1∆)
28 | LQMRLKESEISHNENKM [YIL149C/MLP2] | 2.94 ± 0.065 | 2.96 ± 0.068 | 3.18 ± 0.068 | 3.18 ± 0.09
29 | GAKVKTMRRQKLTILQE [RET1] | 1.43 ± 0.088 | 2.35 ± 0.06 | 2.05 ± 0.14 | 2.22 ± 0.086
30 | VGDVVGGALDNPFEDDM [BRN1] | – | 3.37 ± 0.15 | 3.58 ± 0.21 | 3.16 ± 0.11
31 | SASLHTRSLKYGKLRNG [RRP4] | 1.58 ± 0.075 | 2.15 ± 0.11 | 1.08 ± 0.13 | 2.82 ± 0.16
32 | VLKFTFTGEKPIITGST [MED8] | 2.01 ± 0.082 | 2.18 ± 0.074 | 2.04 ± 0.12 | 2.07 ± 0.062
33 | AAKIIYLAHEDNKEKDF [PRE10] | 2.81 ± 0.19 | 3.18 ± 0.098 | 3.25 ± 0.11 | 3.01 ± 0.23
34 | TANDQYSSILGNSFNKS [YCG1] | 3.13 ± 0.069 | 3.18 ± 0.067 | 3.31 ± 0.038 | 3.46 ± 0.058
35 | LASRNKWDDLNEQLTLL [RPN5] | 2.99 ± 0.09 | 3.4 ± 0.072 | 3.26 ± 0.056 | 3.12 ± 0.047
36 | NANTVFAGSNNQPHQSQ [YOR098C/NUP1] | 2.85 ± 0.1 | 3.15 ± 0.08 | 2.89 ± 0.06 | 3.07 ± 0.046
37 | PATTSQMAKDVTTFLNW [CYT1] | 3.16 ± 0.12 | 3.02 ± 0.13 | 2.84 ± 0.15 | 3.31 ± 0.27
38 | NAAGNTPDATKIKAILE [RPP2A] | 3.13 ± 0.089 | 3.32 ± 0.092 | 2.99 ± 0.085 | 3.19 ± 0.054
39 | EARAEAINLMGVKNNLL [RPO31] | 3.35 ± 0.22 | 1.96 ± 0.15 | 1.84 ± 0.23 | 1.66 ± 0.24
40 | LWKLLSTVKVSDLNLTD [YLR018C/POM34] | 2.35 ± 0.065 | 2.26 ± 0.044 | 2.3 ± 0.06 | 2.52 ± 0.039
41 | CVKNHGQSSSIQSSLMT [YCS4] | 2.48 ± 0.17 | 2.67 ± 0.14 | 2.83 ± 0.052 | 3.05 ± 0.1
42 | TSPIDIREKVAKQALDL [SNF2] | 3.28 ± 0.14 | 3.17 ± 0.19 | 2.81 ± 0.13 | 2.69 ± 0.15
43 | SNTTTQIQFTPLIKKIK [SMC3] | 2.2 ± 0.088 | 2.46 ± 0.045 | 2.71 ± 0.095 | 2.37 ± 0.07
44 | LESIQKTKEAVAALKAV [RPL4A] | – | 3.37 ± 0.2 | 2.82 ± 0.27 | 2.88 ± 0.17
45 | ILVMETSEEQTKFLAKN [SWP82] | 3.01 ± 0.094 | 2.91 ± 0.11 | 2.94 ± 0.048 | 3 ± 0.092
46 | IVNGQTFSYVDSSLQPE [YMR129W/POM152] | 2.47 ± 0.05 | 2.67 ± 0.059 | 2.62 ± 0.052 | 2.06 ± 0.042
47 | VLKSSVYEYVIASTLGP [RPC82] | 1.43 ± 0.085 | 1.53 ± 0.07 | 1.23 ± 0.11 | 1.43 ± 0.055
48 | RPQKLRASLVPGTVLIL [RPL6A] | 2.1 ± 0.066 | 2.32 ± 0.064 | 2.11 ± 0.077 | 2.45 ± 0.081
49 | WDLLPEPIRFLPNQFPL [SWI1] | 2.54 ± 0.059 | 2.58 ± 0.071 | 2.26 ± 0.054 | 2.31 ± 0.069
50 | INSPMPQQAQMQQAQFQ [SNF2] | 2.98 ± 0.093 | 2.98 ± 0.089 | 3.11 ± 0.1 | 2.98 ± 0.083
51 | LGTLVNQKTSAVAALTE [RPL8A] | 2.37 ± 0.095 | 2.45 ± 0.082 | 2.4 ± 0.15 | 2.25 ± 0.11
52 | FIRYDVKTPKKTKYILQ [CSN12] | 2.34 ± 0.048 | 2.29 ± 0.048 | 1.78 ± 0.057 | 2.35 ± 0.051
53 | SREAVRHFGMGPHKGKA [RPL18A] | 3.22 ± 0.19 | 2.8 ± 0.12 | 3.04 ± 0.098 | 3.66 ± 0.16
